From US8877469B2, “Method of drying biological material” (Enwave Corporation, priority 2004, dated 2014)

How the values were obtained:
[1] = Water activity (Aqua lab water activity meter); assay type: physicochemical; conditions: REV, 10% SMP, 10 Torr (200 W)
Procedure: The puffed foam material was removed from the drier and packed in polyethylene bags. The final moisture content and water activity of the dried foams were measured after 24 hours of drying (allow the sample to equilibrate) using air oven method and Aqua lab water activity meter (model series 3, Decagon Device Inc., Washington, USA).
The puffed foam structure was removed from the drier and packed in polyethylene bags. The final moisture content and water activity of the dried foams were measured after 24 hours of drying (allow the sample to equilibrate) using air oven method and Aqua lab water activity meter (model series 3, Decagon Device Inc., Washington, USA).
The water activity of the samples before microwave vacuum drying, immediately after drying and during storage was measured (Aqualab R Model series 3, Decagon Devices, Inc., Washington, USA).

[2] = system: Micrococcus luteus cell wall suspension; assay: Lysozyme activity, turbidity assay; assay type: biochemical; conditions: lysozyme-chitosan 1:3 pastes; for lysozyme enzymatic activity after drying: t-REV 300 Watts, 30 Torr, 10 min
Procedure: Lysozyme activity was determined by the turbidity assay method using freeze-dried Micrococcus luteus cell wall suspension.

[3] = cited from earlier work

Substance	aw [1]	increase in lysozyme activity after t-REV ([2]; before versus after t-REV)	lysozyme enzymatic activity after drying [2]	lysozyme enzymatic activity after drying ([2]; listed as Lysozyme)	retention during pelleting ([3]; encapsulated with hydrogenated vegetable oil and calcium stearate)	loss after the feed pelleting process ([3]; unprotected lysozyme, pelleting at 195° F.)
Bifidobacterium longum	0.36 ± 0.01	–	–	–	–	–
lysozyme: Lysozyme extracted from chicken egg-white (Neova Technologies Inc.)	–	about 10%	no enzymatic activity loss	retained its activity	up to 75%	More than 50%
